Experimental data published in a protein production outcome set (Wang et al. 2014).

Experiment: label from the status in PepcDB records
With “NIKNILSERVSAAMVAAGLPEGTNPAISLSNRPQFGDYQANGVMGAAKKLKTNPRELATKVVAELDLDGIASKIELAGPGFINIHLDESWLAAQLNEVAQDDFIGVAQRGTT” the protein production was “not failed”. For “NITPLKEVQLALAEREAMMQALFDQASQFTALLTPTGKVVKVNQRALDFAGITVDEIVDQDFWETPWWQASEQLKADLKSAIHQAAQGILIRYDVENLGNNGQKVILDFSIRPIYDTDQRIIFLLCEGRDITDKFRIQEALAESEERFRQTFQTTAVSSALISLD”, the protein production was “failed”. In the case of “NIYDSANELSRGLRGLPEYKAVKAAKDAIAADAEASKIFTDYLAFQEEIQKLAQTGQMPDASFQAKMEGFGKQIQGNSLLSEFFTKQQQLAIYLSDIEKIVFEPVSEL”, the protein production was “failed”. In the case of “NKEFTWTSALTFTLNNEKVKSLIGGTADHVKNEDYYLSIGYPVNSFYAPKIDGMWQLGEETDAAAFGCAPGDIKINVPGMIKEADGKFYKVGDDGQPLTDKNGDIIYYTKDNKYTYSDADSQVLGHNAPKWTMGFQNSFTYKNFDLTIYAYFRWGQMINYEMLGWYDSTGKGNFPTYFNYWTESNPSNDFPALNANRETKSYIGYGSLNYVDGSFFKIKNITLGYTFPERLLKNAGISKCRLYATITNPLTVAKSHLLKDYDPEMNGALKYPLSKQLVFGVNVSF”, the protein production was “failed”. For “NKSIRMTPSQVAFEIRGTLLPGEVFAICGSCDALGNWNPQNAVALLPENDTGESMLWKATIVLSRGVSVQYRYFKGYFLEPKTIGGPCQVIVHKWETHLQPRSITPLESEIIIDDGQFGIHNGVETLDSGWLTCQTEIRLRLHYSEKPPVSITKKKLKKSRFRVKLTLEGLEEDDDDRVSPTVLHKMSNSLEISLISDNEFKCRHSQPECGYGLQPDRWTEYSIQTMEPDNLELIFDFFEEDLSEHVVQGDALPGHVGTACLLSSTIAESGKSAGILTLPIMSRNSRKTIGKVRVDYIIIKPLPGYSCDMKSSFSKYWKPRIPLDVGHRGAGNSTTTAQLAKVQENTIASLRNAASHGAAFVEFDVHLSKDFVPVVYHDLTCCLTMKKKFDADPVELFEIPVKELTFDQLQLLKLTHVTALKSKDRKESVVQEENSFSENQPFPSLKMVLESLPEDVGFNIEIKWICQQRDGMWDGNLSTYFDMNLFLDIILKTVLENSGKRRIVFSSFDADICTMVRQKQNKYPILFLTQGKSEIYPELMDLRSRTTPIAMSFAQFENLLGINVHTEDLLRNPSYIQEAKAKGLVIFCWGDDTNDPENRRKLKELGVNGLIYDRIYDWMPEQPNIFQVEQLERLKQELPELKSCLCPTVSRFVPSSLCGESDIHVDANGIDNVENA”, the protein production was “not failed”. In the case of “NLKVKGARDVFEYMKGRIPDETKEHLFVLFLSTKNQILRHETITIGTLTASLIHPREIFKAAIRESAHSIILVHNHPSGDVQPSNADKQVTSILKKAGDLLQIELLDHVIVGNNDWFSFRDHALL”, the protein production was “not failed”. With “NMPRLRMLMSAFPKGGDLHHHLAGAIDAETMLQWAGDQNLCIDTIKLSVIPSPCDAAVNKKPAKNLERQDPILWNKLIDVFSMRNYHFDVAAGEHSGHDHFFSSFFHFAAALDNNFGRMIAYSRRDAAANNLLYIETMQNPKVVSTFARSVLQDAKGKNSPEDLWKVVKDRLPAAVAAAKAETTEAEAQSRQILQCDGRQPDPACSVTMRYMVFAVRAMPPEMVFAQLALGFALAHSDPRWVGVNIVAPEDGAVSMQDYDLHMQFFRFLRQLYPDVKITLHAGELALPLVPTAGLRDHIRKAVFVAGADRIGHGIDIGSEMNPVEILHHMAERPVPVEINLSSNDAILNIKGNQHPFALYRQYNVPVVISTDDAGVSRNDLTTEYMRAIEEQHVSYSDLKKLSRDSLEYAFLSGEGLWQKNTGESVKPVCSGIAFTAMPQGKCADFLVKNDKAALQWKLEAAFIRYEEQVREGA” the protein production was “failed”. For “NQEPSGAVRITLSRFAYLLILKPAMAAFCQQYPGIQLEISVYDGTVNIIEERFDLGIRFGDILEGGVVARPLMKPFREGLYASSAYLAEYGVPAMPADLHHHRLIGYRFITNNRILPLILNDHGEQLTVEMPGQLISNDIDVM”, the protein production was “failed”. In the case of “NQLWTVEEQKKLEQLLIKYPPEEVESRRWQKIADELGNRTAKQVASQVQKYFIKLTKAGIPV”, the protein production was “not failed”. For “NSDLGGTLQFTSSNPDKAFGARLSQTLGSYDTSRTFMRVDTGEYNGLSAYVSGEKYDADAWKGHNNPQKSDAVNAKINYNFGDNRVSFFHSTSSHDEANLPSLSPSIIQRLGYNWSYYTPDWTRAVNAANGIYTGGVTSAGDATYNASSLRDDELDILNGNFSLTDDLVLDATVYHHHDSGRGNSYYPFVYTSGATTVPSNAIRSTVYGIDRTGFQSSLTYFLGQHEIQAGFWIQSNKNDIARYLFDTTNATPQNHIVKTNGLPLAATVLDQSYNDLTRQFYLRDTYTLLDDRLKLEFGAKNTVTTSTAKGKGGGYASGSLEARDRFLPQVGATYKLNDSDEVFTSYSENMAAFPSGGYSPFFTTQTAVDAQNGFKDLKPETSKTVELGLRRSTKLYSASAAVYNTRFDNRLVAITNCTGIVICQNGVANVGSVTSRGLELSLGLTPNENWRWSNSMSYNHSTYDDDYASGGSTVQVKGKTVVDTPKLMYSSSLDWNWEHWNAGLQGNYISKRYYTYTNDSSVSGYWLANANLGYDCGKLGALKDTTVSLNMVNLFDKRYISTLNTDASAAADPSGNLQILQVGTPRSAFVTLGVKL”, the protein production was “failed”. In the case of “NSHKVQMEKEIALKQKKFEQKHLQNYTDEIVGLYNEIRGFRHDYAGMLVSMQMAIDSGNLQEIDRIYNEVLVKANHKLRSDKYTYFDLNNIEDSALRSLVAQSIVYARNNGVEFTLEVKDTITKLPIELLDLVRIMSVLLNNAVEGSADSYKKQMEVAVIKMETETVIVIQNSCKMTMTPSGDLFALGFSTKGRNRGVGLNNVKELLDKYNNIILETEMEGSTFRQIIRFKREFE”, the protein production was “failed”. With “NTMRSFILRARSAPTDSQRLLDEIGGKCHTEILAHCMMNSLFTAQSHREDVVIHLVLESTRDYSRTITVEANEISDVGGFHEAALIALLVKALDASVGMGKEQTRVVQPGLTVRTISFEALLGELAEHHSLYMMDKKGDSIRDIKIGPNPCFILTDHIPMPKKSGNSMKRLGVEKISLGPKMLFASQCVTLIHNEIDHQEA” the protein production was “failed”. For “NWKTRLRMLNHFPKPTFEDIPLLDLALSDEKVPVRRQAIVLLGMIESKEILPYLYKGLRDKSPAVRRTAGDCISDLGYPEALPEMVLLLDDPQKIVRWRAAMFIFDEGNAEQLPALKAHINDNAFEVKLQIEMAISRIENGDEALGSVWKQMAN”, the protein production was “failed”. With “NYLRDQVVMVGYGEVGRRITKTLMQQEIKVVIAEENREIVEDLRKKGIAAVSGEATEPSVLIQAHIMHARMLILSPMDILDIHRIVDIAKQLNPQIEVLCCAENKEEAEIIRQDEIGLVFYAKEEMAKNMSHHILGQIERAHHLSLGH” the protein production was “failed”. For “PAKRAFSNADQFVETMLPLAKEAAARIGVDPVMLVAQAALETGWGKSIMRQQDGSSSHNLFGIKAAGSWKGAEARAITSEFRDGKMVKETADFRSYDSYADSFHDLVSLLQNNNRYKDVVNSADKPEQFVKELQKAGYATDPAYASKISQIAKQMKS”, the protein production was “not failed”. With “PDATSKKVVPLGVEIYEINGPFFFGVADRLKGVLDVIEETPKVFILRMRRVPVIDATGMHALWEFQESCEKRGTILLLSGVSDRLYGALNRFGFIEALGEERVFDHIDKALAYAKLLVETAEERGRES” the protein production was “not failed”. For “PEDAINDESDDEDKVDKDDRLPQSDKDKRIVPENEYSDSEDEGEGGRRDNRSYKGQRKRPRLDKDTNSNKASSETSSEIKDEKEKGDGADGEESTASNTNS”, the protein production was “failed”. With “PEDSARVWQAFSRTLQTGEHVEIDYRYLDPGADDWIHLHVAWRGVRGSSPDTYDVIGITQNVTELVAARDAALAAAETKSQFLANMSHEIRTPMNGVLGVLHLLKTEK” the protein production was “failed”. In the case of “PFYYRLHFCDTMELFIETLTGTCFELRVSPFETVISVKAKIRRLEGIPICRQHLIWNNMELENDYCLNDYNISEGCTLKLVLAMRGGPINTRRVPTDDPLR”, the protein production was “failed”. For “PGEAVGVTIFEMALDELAEKAGLDPLELRLRNIPEEDPETGKPFTSHMLAEALRDGADRFGWSDRRAPGERRQGEWLIGMGMASAVRVNMLHKARVRVTLTGEGALVESSMTDIGTGTYTILTQIVAEMLGLAPDRVRTVLGDTDLPEGSGSGGSIGAASNGSAAFLACEEIRRQIAAGMGCPEEELTLKDGRATCGNRTRDLAEIVTQPLSAEGHFEPGKALKGVRSSTFGAHFAEVAVNEITGEVRVRRMLGAFAAGRILNEKTARSQCLGGMTFGIGMALMEEMVHDRRFGQVVSRDLANYHIPAHADVPALEVHFLEERDSYGGTLQAKGIGELGICGSGAAVLNAIHNACGVRVRDLPATPDKVLDGL”, the protein production was “failed”.
